PMC2635643, “Improving the Stability of Insulin in Solutions Containing Intestinal Proteases in Vitro” (International Journal of Molecular Sciences, 2008)

Assays:
[1] = UV absorption spectra of insulin in different solutions; format: physicochemical; settings: Table 1, UV absorption at 275 nm; insulin 100 μg/mL, casein 200 μg/mL, HP-β-CD 1 mg/mL (Figure 6A)
Experimental: Absorption spectra were recorded on a Shimadzu UV-2450 spectrophotometer. The absorption spectra were carried out according to Kano et al..

trypsin = test: Degradation of insulin induced by trypsin (remaining insulin by HPLC and PAGE); format: in vitro ADME
Experimental: (§1) HPLC was carried out according to Todo et al. with minor modifications. Analyses of remaining insulin were carried out by reserve phase HPLC with an isocratic system (Shimadzu Co., Kyoto) using the raw insulin bulk drug as the standard (28 IU/mg). The HPLC system was composed of a pump (LC-10ADvp), diode array detector (SPD-M10Avp), column oven (CTO-10ASvp), and LC workstation (CLASS-LC10). The mobile phase was a 72:28 mixture of 0.2 mol/L sodium sulphate buffer (pH 3.0) and acetonitrile at a flow rate of 1.0 mL/min. The column was a Shodex Asahipak ODP-50 6D (4.6mm × 150 mm, 5 um) (Showa Denko, Ltd., Tokyo) heated at room temperature. Ultraviolet absorption was measured at 214 nm.
(§2) PAGE was carried out according to Laemmli with minor modifications. The running gel, stacking gel and electrode buffer are without sodium dodecyl sulfate (SDS). The running gel and stacking gel contained 15% and 4.5% acrylamide, respectively. After electrophoresis, the gels were subjected to stain with Coomassie Brilliant R-250.
(§3) Insulin was dissolved in a few drops of 0.05 mol/L HCL, then 0.05 mol/L PBS (phosphate buffer, pH=7.0) was added. α-Chymotrypsin (5 mg/mL) and trypsin (12 mg/mL) solutions were prepared with Tris-HCL buffer (pH=8.0), respectively. Casein (5 g) was dissolved in 0.1 mol/L NaOH (10 mL), then was diluted to 100 mL with PBS (pH=7.0), The pH of final concentration was again measured and adjusted to pH 7.0. 5% Protamine solution was prepared with PBS (pH=7.0). Insulin solution and enzyme solutions were incubated at 37 °C for 15 min. Different treatments were administered. The final concentration of insulin in the solution was 0.5 mg/mL. The final mass ratios in the solution were as following, insulin:HP-β-CD = 1 :30; insulin:casein = 1:10; insulin:protamine = 1:10; insulin:casein or protamine:HP-β-CD = 1:10:30. Before the addition of a-chymotrypsin solution, insulin solution was vortexed at high speed for 5 s and a sample was withdrawn and added with ice-cold 0.5% TFA acid as the zero time sample. Samples were withdrawn for 15, 30, 45 and 60 min after the addition of the enzyme solution at 37 °C. The final enzyme concentrations of α-chymotrypsin and trypsin were 8 mg/L [29] and 600 mg/L [21], respectively. Then the samples were analyzed by PAGE and HPLC after adding 50 μl of ice-cold 0.5% TFA acid to terminate the reaction. Every experiment was carried out three times. The average and the standard deviation of the data were calculated.

α-chymotrypsin = test: Degradation of insulin induced by α-chymotrypsin (remaining insulin by HPLC and PAGE); format: in vitro ADME
Experimental: as §1, §2, §3

Row | Substance | ΔA275 [1] | degradation of insulin by trypsin, treated with HP-β-CD (trypsin; insulin 0.5 mg/mL, insulin:HP-β-CD = 1:30 (mass), trypsin 600 mg/L, PBS pH 7.0, 37 °C, 0-60 min, n=3, P>0.05 vs insulin alone) | degradation of insulin by trypsin in the presence of protamine (trypsin; insulin 0.5 mg/mL, insulin:protamine = 1:10 (mass), trypsin 600 mg/L, PBS pH 7.0, 37 °C, 0-60 min, n=3, P<0.05 vs insulin alone) | insulin detected (remaining) against trypsin, co-incubated with HP-β-CD and protamine (trypsin; insulin 0.5 mg/mL, insulin:protamine:HP-β-CD = 1:10:30 (mass), trypsin 600 mg/L, PBS pH 7.0, 37 °C, at 60 min, HPLC UV 214 nm, mean of n=3, P<0.01 vs insulin alone) | insulin remained against trypsin (trypsin; insulin alone 0.5 mg/mL, trypsin 600 mg/L, PBS pH 7.0, 37 °C, after 60 min, 15 min pre-incubation, HPLC UV 214 nm, mean of n=3) | remaining insulin against trypsin in the solution containing casein and protamine (trypsin; insulin with casein and protamine, trypsin, 37 °C, data not shown) | insulin detected (remaining) against α-chymotrypsin, treated with HP-β-CD (α-chymotrypsin; insulin 0.5 mg/mL, insulin:HP-β-CD = 1:30 (mass), α-chymotrypsin 8 mg/L, PBS pH 7.0, 37 °C, sampling 0-60 min, HPLC UV 214 nm, mean of n=3, P>0.05 vs insulin alone) | insulin remained undegraded against α-chymotrypsin, treated with casein (α-chymotrypsin; insulin 0.5 mg/mL, insulin:casein = 1:10 (mass), α-chymotrypsin 8 mg/L, PBS pH 7.0, 37 °C, sampling 0-60 min, HPLC UV 214 nm, mean of n=3, P<0.01 vs insulin alone) | insulin remained undegraded against α-chymotrypsin, co-incubated with HP-β-CD and casein (α-chymotrypsin; insulin 0.5 mg/mL, insulin:casein:HP-β-CD = 1:10:30 (mass), α-chymotrypsin 8 mg/L, PBS pH 7.0, 37 °C, sampling 0-60 min, HPLC UV 214 nm, mean of n=3, P<0.001 vs insulin alone) | remaining insulin against α-chymotrypsin (α-chymotrypsin; insulin alone 0.5 mg/mL, α-chymotrypsin 8 mg/L, PBS pH 7.0, 37 °C, after 60 min, 15 min pre-incubation, HPLC UV 214 nm and PAGE, n=3) | remained insulin against α-chymotrypsin in the solution containing casein and protamine (α-chymotrypsin; insulin with casein and protamine, α-chymotrypsin, 37 °C, data not shown)
1 | Casein | 0.219 | – | – | – | – | – | – | – | – | – | –
2 | Insulin | 0.098 | partly inhibited | significantly decreased | about 70% | about 15% | almost equal to that in the solution containing protamine | About 25% | about 45% | About 80% | most of insulin was degraded | almost equal to that in the solution containing casein
